Literature values as cited in PMC8073936.

Molecular target: TRF1 (Homo sapiens) (UniProt P54274)
Chain of UniProt P54274 (P54274 2-439): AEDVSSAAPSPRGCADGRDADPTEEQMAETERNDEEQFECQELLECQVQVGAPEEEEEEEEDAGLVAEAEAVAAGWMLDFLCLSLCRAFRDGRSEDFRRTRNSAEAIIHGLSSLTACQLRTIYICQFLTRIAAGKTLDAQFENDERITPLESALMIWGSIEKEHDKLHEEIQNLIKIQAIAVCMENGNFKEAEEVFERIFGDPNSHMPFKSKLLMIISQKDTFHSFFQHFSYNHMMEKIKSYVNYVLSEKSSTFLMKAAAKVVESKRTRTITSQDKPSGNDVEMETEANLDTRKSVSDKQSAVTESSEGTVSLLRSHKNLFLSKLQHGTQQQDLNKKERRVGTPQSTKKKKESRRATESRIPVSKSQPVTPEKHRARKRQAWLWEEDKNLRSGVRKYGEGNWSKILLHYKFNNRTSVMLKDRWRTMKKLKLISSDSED

For Ku70/80 (from UniProt P12956), the Kd is listed as 0.4 nM.
